# Reference: article PMC12009303, “Structural characterization of antibody-responses following Zolgensma treatment for AAV capsid engineering to expand patient cohorts” (Nature Communications, 2025)
# Target: T1, AAV9 capsid (adeno-associated virus serotype 9, UniProt Q6JC40)
# T1 construct: also called wtAAV9; AAV9 vector; copies: 60
# Assay: far-Western, overlay or dot blot; native dot immunoblot: native capsids adsorbed onto nitrocellulose; human mAbs at ~1 µg/ml in PBS with 6% milk, 0.1% Tween-20, 1 h; anti-human-HRP
# Conditions: both partners purified
row,Binder,binding result
1,"mAb2-1 (antibody, V domains shown) VH: EVQLLESGGGLVQPGKSLRLSCAASGFSFSNYAMSWVRQAPGKGLEWVSGISGSGGSTNYAESVRGRFTISRDNSKNTLYLEMNSLRVEDTAVYYCAKGMSYYDRSGYFWAKYHYGMDVWGQGITVTVSS VL: not shown",binds
2,"mAb3-3 (antibody, V domains shown) VH: QVQLQESGPGLVKSSETLSLTCTVSGESISSSSHYWGWIRQPPGKGLEFLGNVYYLGSTYYNPSLESRVTILLDTSKNQFSLKVNSVTVADTAVYYCARHGAGSYSGLFFDYWGQGARVIVSS VL: DIQMTQSPSFVSASVGDRVNITCRASQGINSWLAWYQQKPGKAPKLLIYSASSLQSGVPSRFSGSGSGTDFTLTISTLQPEDFATYYCQQANSFPYTFGQGTKVD",binds
3,"mAb3-1 (antibody, V domains shown) VH: EVQLLESGGGLVQPGGSLRLSCEASGFTFSRYPMNWVRQAPGKGLEWVSHISASGGTTYYADTVKGRFSISRDNSKNTLYLEMNSLRAEDTAIYFCAKDYPPDEVTMIVVGMPYFDSWGLGTLVSVSS VL: not shown",binds
4,"mAb1-4 (antibody, V domains shown) VH: QVQVVESGAEVKKPGASVKVSCKASGYAFTTYYMHWVRQAPGQGLEWMGLINPSGDSITYAQRFQGRVTMTKDTSTSTVYMELSSLRSEDTAIYYCARDPNVAFYYGSGNYYKDNAMDVWGQGTTVTVSS VL: not shown",binds
5,"mAb2-4 (antibody, V domains shown) VH: EVQLLESGGGLVHPGGSLRLSCAASGFPFSNFAMSWVRQAPGKGLEWVSTISGSSGSTYYADSVRGRFTISRDYSKNTVYLEMNSLRADDTAIYYCAKDRMITFGEVIVKHYDAFEIWGQGTRVAV VL: DIQMTQSPSSLSASVGDRVTITCRASQTISTNVNWYQQKPGKAPKLLIYAASSLQSGVPSRFSGSGSGTDFTLTISSLQPEDFATFYCQQSYSAPLTFGEGTKV",binds
6,"mAb3-5 (antibody, V domains shown) VH: EVQLVESGGGLVQPGGSLRLSCAASGFTFSNYGMNWVRQAPGKGLEWVSYISSGGTIYYADSVKGRFTISRDNAKNSVYLQMNSLRAEDTAVYYCARDPAYCGDDCYTIPAHYFDYWGQGTPVTVS VL: DIQMTQSPSSLSASVGDRVTITCRTSQSISRYLNWYQQKPGKAPKLLIYAASSLQSGVPSRFTGSGSGTDFTLTISSLQPEDFATYYCQQSYSIPPVTFGQGTRVD",binds
7,"mAb2-6 (antibody, V domains shown) VH: VQLLESGGALVQPGGSLRLSCAASGFSFSNYAMSWVRQAPGKGLEWVSTISASGGTTYFADSVKGHFTISRDNSKNTLYLQMDSLRAEDTAVYYCAKDPNYYDLSGYFLGGYYFDYWGQGTLVTVSS VL: EIVLTQSPGTLSLSPGERATLSCRASQSVRSSYLAWYQQKPGQAPRLLIYGASSRATDIPDRFSGSGSGTDFTLTISRLEPEDFAVYYCQQYGTSPAFGGGTKV",binds
8,"mAb3-4 (antibody, V domains shown) VH: AVESGGGLVKPGGPLRLSCAASGFSLSDNYMTWIRQAPGKGLEWVSYISSSGSFINYADSVKGRFTISRDNAKNSLYLQMNSLRAEDTAVYYCARVLSSGGLTTSWRALWYFDVWGRGTLVTVS VL: TVVTQEPSFSVSPGGTVTLTCGLTSGSVSTSYYPSWYQQTPGQTPRTLIYSTNIRSSGVPDRFSGSILGNKAALTITGAQADDECDYYCVLYMGSGIWVFGGGTKLTVL",binds
9,"mAb1-3 (antibody, V domains shown) VH: VQLVESGGGVVQPGRSLRLSCAASGFSFSSFVFHWVRQAPGKGLEWVAVISYDGSNKNYADSVKGRFTISRDNSKNTLFLQMNSLSADDTAVYYCARGAICSSTTCYLGDSYYFYGMDVWGQGTTVTVSS VL: LTQPPSVSGAPGQRVTISCTGSRSNIGAGYDVHWYQQLPGTAPKLLIYGNSNRPSGVPDRFSGSKSGTSASLAITGLQTDDEADYYCQSYDSSLSGSVFGGGTKLTVL",binds
10,"mAb1-2 (antibody, V domains shown, also called Fab1-2 (so named in the dot blot sentence)) VH: EVQLVESGGGLVQPGGSLRLSCAASGFIFSNYWMSWVRQAPGKGPEWVANIKQDGSANHYVDSVKGRFTISRDNAKNSLYLQMNSLRAEDTAVYYCAREAYQDWNYDYWGQGTLVTVSS VL: DIQMTQSPSSLSASVGDRVTVTCRASEFISRYLNWYQQKPGKAPKVLIYAASSLQSGVPSRFSGSGSGTDFTLTISSLQPEDFATYYCQQSYSTPYTFGQGTKLEIK",binds
11,"mAb2-2 (antibody, V domains shown) VH: QVQLQESGPGLVKPSVTLSLTCTVSGDSISTYYWSWVRQPPGKGLEWIGYIYYSGNTNYNPSLKSRVTMSVDTSKNQFSLKLNSVTAADTAVYYCARTHHDYGDYRPSYYFDYWGQGTLVTVSS VL: QSALTQPASVSGSPGQSITISCTGTSSDVGAYDYVSWYQQHPGKAPKLMIYDVSNRPSSGVSNRFSGSKSGNTASLTISGLQAEDEADYYCSSYTSSSTVILGGGTKLTVL",binds
12,"mAb3-2 (antibody, V domains shown) VH: EVQLLESGGGLVQPGGSLRLSCAASGFTFSNYAMSWVRQAPGKGLEWVSLISGSGGSIDYADSVKGRFTISRDNSKNTLYLQMDSLRAEDTAVYYCSKDPIYYDLSGYYAGRIYYFDYWGQGTLVTVSS VL: EIVMTQSPATLSVSPGDTATLSCRASHSVSRDLAWYQQKPGQAPRLLIYDASTRATGIPARFSGSGSGTEFTLTISSLQSEDFAVYYCQQYINWVTFGPGTKVDIE",binds
13,"mAb2-3 (antibody, V domains shown) VH: VQLVESGGGLVKPGGSLRLSCATSGFTFSDYYMSWIRQAPGKGLEWVSYISSSGSTIYYADSVKGRFTMSRDNAKNSLFLRMNSLRAEDTAVYYCARDQITVDREVIRAHYYYGMDVWGQGTTVTVS VL: DIQMTQSPSSVSASVGDRVTITCRASQGINSYLAWYQQKPGKAPKLLIYAASSLESGVPSRFSGSGSGTDFTLTISSLQPEDFATYYCQQANSFPLTFGGGTKVDI",binds
14,"mAb1-5 (antibody, V domains shown) VH: EVQLVESGGGLVKPGGSLRLSCAASGFMFSSYSMNWVRQAPGKGLEWVSSISRSDSYIDYADSVKGRFTISRDTAMNVLYLQMDSLRAEDTGVYYCARTHVFNMFREVINDDYYGMDVWGQGTTVTVS VL: ALTQPASVSGSPGQSITISCTGTSSDFGIYNSVSWYQHHPGKAPKLMIFGVSNRPSGVSNRFSGSKSGNTASLSISGLQAEDEADYYCSSFTARSTVVFGGGTKLTVL",binds
15,"mAb1-7 (antibody, V domains shown) VH: QVQLQESGPGLVKPSETLSLTCTVSGDSIRSYYWSWIRQPPGKGLEWIGHIYYSGSTNYKPSLKSRATILVDTSKNQFSLKLRSVTAADTAVYYCAREMTGVAGRGWDHWGQGTLVTVSS VL: ALTQPPSASGTPGQRVTISCSGSSSNIGSNTVNWYQQLPGTAPKLLIFINNQRPSGVPDRFSGSKSGTSASLAISGLQSEDEADYYCTTWDGSLNGYVFGTRTEVTVL",binds
16,"mAb2-5 (antibody, V domains shown) VH: EVQLVESGGGLVKPGGSPRLSCAASGFNFGSYSMNWVRQAPGKGLEWVSSISSSSSYIYYADSVKGRFTISRDNAKHSLYLQVNSLRAEDTAVYYCARDPTTYGYNSAWDKKGWYFDLWGRGTLLTVS VL: VLTQPPSVSAAPGQMVTISCSGSSSNIGNDYISWYQQLPGTAPKLLIYDNNERPSGIPDRFSGSKSGTSATLGITGVQTGDEADYYCGTWDSSLSAWVFGEGTKLTVV",binds
